Experiments:
[1] = target: T1, recombinant human ENTPD2 (residues 29-462) (Homo sapiens, UniProt Q9Y5L3); experiment: Biochemical human ENTPD2 functional assay (Transcreener ADP2 TR-FRET); conditions: FIG. 15
T1 construct: residues 29-462 of human or cyno ENTPD2 were cloned into expression vector; GP67 signal peptide (N); made in house; host or cells: High Five (Trichoplusia ni) insect cells, baculovirus
T1 sequence (Q9Y5L3 29-462): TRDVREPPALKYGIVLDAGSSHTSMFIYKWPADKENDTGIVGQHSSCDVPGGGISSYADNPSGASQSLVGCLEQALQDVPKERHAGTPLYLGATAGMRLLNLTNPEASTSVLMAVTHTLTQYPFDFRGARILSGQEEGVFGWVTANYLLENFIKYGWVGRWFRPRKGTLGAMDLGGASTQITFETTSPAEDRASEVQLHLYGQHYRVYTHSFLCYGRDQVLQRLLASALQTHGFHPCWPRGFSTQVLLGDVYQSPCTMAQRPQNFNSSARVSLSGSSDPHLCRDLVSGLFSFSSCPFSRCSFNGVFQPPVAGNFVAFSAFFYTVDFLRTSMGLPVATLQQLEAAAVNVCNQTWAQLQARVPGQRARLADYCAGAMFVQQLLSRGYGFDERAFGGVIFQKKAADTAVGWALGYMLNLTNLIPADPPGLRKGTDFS
From the text: Biochemical and cell-based functional assays were developed in-house to understand functional impact of anti-ENTPD2 Abs against purified extracellular domain of ENTPD2 (residues 29-462), as well as against the fully intact protein in the context of the native cell-based conformation. ENTPD2 hydrolyzes ATP to ADP, which can subsequently be detected using the HTRF Transcreener ADP2 TR-FRET Red Assay (BellBrook Labs, Madison, Wis.) where ENTPD2-produced ADP would compete with the ADP Tracer for binding to the anti-ADP-Tb antibody. The resulting signal is inversely proportional to the concentration of ADP in the sample.
To evaluate activity of anti-ENTPD2 Abs in the ENTPD2 biochemical assay, anti-ENTPD2 Abs and recombinant ENTPD2 (residues 29-462) were diluted in reaction buffer (50 mM HEPES, pH 7.1, 10 mM MgCl2, 0.01% BSA) to the desired concentration. 4 μL per well of the ENTPD2 solution and 2 μL per well of the Anti-ENTPD2 Ab solution were transferred into a ProxiPlate (PerkinElmer, Waltham, Mass.) and incubated for 30 min at room temperature. Reaction was then initiated via addition of 2 μl of ATP (final assay concentration of 1 μM), and the sample was incubated for 25 min at room temperature. […]
HTRF signal (Emission at 620 nm and 665 nm) was assessed in both assays using the Envision plate reader in HTRF mode (Perkin Elmer, Waltham, Mass.). HTRF ratio was determined using the following formula: HTRF ratio=R=Emission at 665 nm/Emission at 620 nm×10,000. Subsequently % Residual Activity and % Inhibition were determined as follows:
Where R0% is the HTRF ratio of the negative control (0% enzyme activity), and R100% is the HTRF ratio of the positive control (100% enzyme activity). Data were analyzed in Microsoft Excel and graphed using GraphPad's Prism 7.0 software and IC50 values were obtained using non-linear regression, log (agonist) vs. response-variable slope (four parameters) analysis.

ENTPD2 = target: T2, ENTPD2 (Homo sapiens, UniProt Q9Y5L3); experiment: Hybridoma mAb screen: cell-based assay for inhibition of ATP hydrolysis by ENTPD2; conditions: hybridoma-derived mAbs
T2 sequence (Q9Y5L3 1-495): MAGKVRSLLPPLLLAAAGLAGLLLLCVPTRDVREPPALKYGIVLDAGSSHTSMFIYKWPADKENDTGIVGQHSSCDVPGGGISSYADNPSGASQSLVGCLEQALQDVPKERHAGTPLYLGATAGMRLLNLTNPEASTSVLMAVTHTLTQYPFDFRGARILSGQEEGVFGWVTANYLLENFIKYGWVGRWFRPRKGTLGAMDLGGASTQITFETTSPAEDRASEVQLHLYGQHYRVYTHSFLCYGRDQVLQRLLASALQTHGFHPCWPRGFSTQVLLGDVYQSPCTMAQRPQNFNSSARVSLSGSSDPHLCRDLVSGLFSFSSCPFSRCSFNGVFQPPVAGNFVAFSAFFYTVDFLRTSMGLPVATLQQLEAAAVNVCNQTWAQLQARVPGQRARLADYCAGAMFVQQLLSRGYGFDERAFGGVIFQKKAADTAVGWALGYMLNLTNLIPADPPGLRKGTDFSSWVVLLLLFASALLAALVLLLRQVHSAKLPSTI
From the text: Hybridoma-derived mAbs were screened in a cell-based assay for inhibition of ATP hydrolysis by ENTPD2.

B1: mAb17: hybridoma-derived lead inhibitory anti-human ENTPD2 mAb; VH/VL DNA SEQ ID NO: 234/238 (antibody, V domains shown)
VH: EVQLQQFGAELVKPGASVKISCKASGYTFTDYNMDWVKQSHGKSLEWIGDINPKYDISTYNQQFKGKATLTVDKSSSTAYMELRSLTSEDTAVYYCARRGFFLYYGINYYYFDVWGAGTTVTVSS
VL: QIVLTQSPAIMSASLGEEITLTCSASSSVSYIHWYQQKSGTSPTLLIYSTSNLASGVPSRFSGSGSGTFYSLTISSVEAEDAADYYCHQWSSYPWTFGGGTKLEIK
inhibition of the catalytic activity of recombinant human ENTPD2 [1]: potently inhibit
inhibition of ATP hydrolysis by ENTPD2 (ENTPD2): lead inhibitory mAbs
